B1: Pistol ribozyme (parent)
chain: GGGUCGUUGUUCCAUAAUCGCGUGGAUAUGGCACGCAAGUUUCUACCGGGCACCGUAAAUGUCCGACUGGAGCCGUUCGGGCGGCUAUAAACAGACCUCAGGCCCGAAGCGUGGCGGCACCUGCCGCCGGUGGUAAAAAAGAUCGGAAGAGCACACGUCU

Variants of: B1
Test: aptazyme ON/OFF ratio, guanine; higher = stronger switching; co-transcriptional cleavage with and without guanine

Point of comparison: U7G U10G, “aptazyme ON/OFF ratio” value 1.42. Against it:
- U7G U10A U11G C12G C13G — lower, 1.26
- U7G U10A U11G C12G C13A — lower, 1.18
- U7G U11A — higher, 2.37
- U7G U11C — lower, 1.11
- U7G U10G U11C C12U — lower, 1.17
- U7G U10G U11C C12G — lower, 1.25
- U7G U10G U11C C12A — lower, 1.25
- U7G U10G C12U C13G — lower, 1.24
- U7G U10G C12U C13U — higher, 1.43
- U7G U10G C12U C13A — lower, 1.18
- U7G U10C U11G C12U C13U — lower, 1.18
- U7G U10C U11G C12U C13G — lower, 1.13
- U7G U10C U11G C12U C13A — lower, 1.11
- U7G U10C U11G C12A C13G — lower, 1.07
- U7G U10C U11G C12A C13U — lower, 1.11
- U7G U10C U11G C12A C13A — lower, 1.11
- U7G U11C C12G C13U — lower, 1.14
- U7G U11C C12G C13A — lower, 1.2
- U7G U11C C12G C13G — lower, 1.09
- U7G U10C — higher, 1.5
- U7G U10C C12G C13A — lower, 1.09
- U7G U10C C12G C13G — lower, 1.04
- U7G U10C C12G C13U — lower, 1.14
- U7G U11C C12A C13U — lower, 1.22
- U7G U11C C12A C13G — lower, 1.1
- U7G U11C C12A C13A — lower, 1.12
- U7G U11A C12U C13G — lower, 1.14
- U7G U11A C12U C13A — lower, 1.19
- U7G U11A C12U C13U — lower, 1.28
- U7G U11A C12A C13G — lower, 1.14
- U7G U11A C12A C13U — lower, 1.22
- U7G U11A C12A C13A — lower, 1.17
- U7G U10G U11C C12G C13U — lower, 1.35
- U7G U10G U11C C12G C13A — lower, 1.14
- U7G U10G U11C C12G C13G — lower, 1.07
- U7G U11A C12A — lower, 1.16
- U7G U11A C12U — higher, 1.68
- U7G U11A C12G — lower, 1.18
- U7G U10C U11A C12G C13G — lower, 1.11
- U7G U10C U11A C12G C13A — lower, 1.07
- U7G U10C U11A C12G C13U — lower, 1.06
- U7G U11C C12U C13A — lower, 1.13
- U7G U11C C12U C13U — lower, 1.19
- U7G U11C C12U C13G — lower, 1.1
- U7G U10G U11A C12G C13A — lower, 1.11
- U7G U10G U11A C12G C13U — lower, 1.1
- U7G U10G U11A C12G C13G — lower, 1.13
- U7G U10C U11C — lower, 1.07
- U7G U10C U11G — lower, 1.22
- U7G U10C U11A — lower, 1.32
- U7G U10G C12A C13A — lower, 1.09
- U7G U10G C12A C13U — lower, 1.34
- U7G U10G C12A C13G — lower, 1.11
- U7G U11A C13G — lower, 1.08
- U7G U11A C13A — lower, 1.16
- U7G U11A C13U — lower, 1.36
- U7G U10C C12U — lower, 1.2
- U7G U10C C12G — lower, 1.26
- U7G U10C C12A — lower, 1.12
- U7G U10G U11A C13A — lower, 1.11
- U7G U10G U11A C13G — lower, 1.07
- U7G U10G U11A C13U — lower, 1.11
- U7G U10C U11C C12A C13U — lower, 1.11
- U7G U10C U11C C12A C13A — lower, 1.08
- U7G U10C U11C C12A C13G — lower, 1.08
- U7G U10C U11G C13G — lower, 1.09
- U7G U10C U11G C13A — lower, 1.08
- U7G U10C U11G C13U — lower, 1.14
- U7G U10G C12G — lower, 1.09
- U7G U10G C12U — lower, 1.39
- U7G U10G C12A — lower, 1.22
- U7G U11A C12G C13U — lower, 1.12
- U7G U11A C12G C13G — lower, 1.11
- U7G U11A C12G C13A — lower, 1.08
- U7G U10C U11A C12A C13U — lower, 1.16
- U7G U10C U11A C12A C13A — lower, 1.17
- U7G U10C U11A C12A C13G — lower, 1.06
- U7G U10A U11G C13G — lower, 1.14
- U7G U10A U11G C13A — lower, 1.16
- U7G U10A U11G C13U — lower, 1.22
- U7G U10G U11G — higher, 1.53
- U7G U10G U11A — lower, 1.21
- U7G U10G U11C — lower, 1.07

Reference: the RNAGym collection of RNA variant scans (doi:10.1021/acssynbio.7b00057)
